Test results published in US20240361334A1.
One block for each substance: values may come before it.

How the values were obtained:
[1] = biological target: human C1q protein (Sigma-Aldrich #C1740) (human) (UniProt P02745); assay: HTRF sandwich, biotin-anti-human Fab 1/SA-d2, Eu-anti-C1q, buffer 2, with 150 nM human TNF-α
[2] = biological target: human C1q protein (Sigma-Aldrich #C1740) (human) (UniProt P02745); assay: HTRF sandwich, biotin-anti-human Fab 2/SA-d2, Eu-anti-C1q
[3] = biological target: human C1q protein (Sigma-Aldrich #C1740) (human) (UniProt P02745); assay: HTRF sandwich, biotin-Protein L/SA-d2, Eu-anti-C1q
[4] = biological target: human C1q protein (Sigma-Aldrich #C1740) (human) (UniProt P02745); assay: HTRF sandwich, biotin-anti-human Fab 1/SA-d2, Eu-anti-C1q, buffer 2
[5] = biological target: Human myeloma IgG2 purified from human plasma (Sigma-Aldrich #I5404); assay: HTRF saturation binding, biotin-anti-Fab/SA-d2 on Eu cryptate-IgG
[6] = biological target: Human myeloma IgG4 purified from human plasma (Sigma-Aldrich #I4764); assay: as above
[7] = biological target: Human myeloma IgG1 purified from human plasma (Sigma-Aldrich #I5154); assay: as above
[8] = biological target: Human myeloma IgG4 purified from human plasma (Sigma-Aldrich #I4764); assay: HTRF saturation binding, anti-Fab-d2 on Eu cryptate-IgG
[9] = biological target: Human myeloma IgG1 purified from human plasma (Sigma-Aldrich #I5154); assay: as above
[10] = biological target: human C1q protein (Sigma-Aldrich #C1740) (human) (UniProt P02745); assay: HTRF sandwich, biotin-anti-human Fab 1/SA-d2, Eu-anti-C1q, buffer 1
[11] = biological target: human C1q protein (Sigma-Aldrich #C1740) (human) (UniProt P02745); assay: HTRF sandwich, 50 nM biotin-anti-human Fab 1/SA-d2, Eu-anti-C1q, buffer 2
[12] = biological target: human C1q protein (Sigma-Aldrich #C1740) (human) (UniProt P02745); assay: HTRF sandwich, 30 nM biotin-anti-human Fab 1/SA-d2, Eu-anti-C1q, buffer 2
[13] = biological target: human C1q protein (Sigma-Aldrich #C1740) (human) (UniProt P02745); assay: HTRF sandwich, biotin-anti-human Fab 1/SA-d2, Tb cryptate-C1q
[14] = biological target: human C1q protein (Sigma-Aldrich #C1740) (human) (UniProt P02745); assay: AlphaLISA sandwich, biotin-anti-human Fab 1/streptavidin donor beads, anti-C1q acceptor beads
[15] = biological target: human C1q protein (Sigma-Aldrich #C1740) (human) (UniProt P02745); assay: HTRF sandwich, 40 nM biotin-anti-human Fab 1/SA-d2, Eu-anti-C1q, buffer 2
[16] = biological target: human C1q protein (Sigma-Aldrich #C1740) (human) (UniProt P02745); assay: HTRF sandwich, biotin-anti-human Fab 1/SA-d2, Eu-anti-C1q, 155 mM NaCl
[17] = biological target: human C1q protein (Sigma-Aldrich #C1740) (human) (UniProt P02745); assay: HTRF sandwich, biotin-anti-human Fab 1/SA-d2, Eu-anti-C1q, 135 mM NaCl
[18] = biological target: human C1q protein (Sigma-Aldrich #C1740) (human) (UniProt P02745); assay: HTRF sandwich, anti-human Fab 2-d2 without streptavidin, Eu-anti-C1q

Chain of Adalimumab (+150 nM TNF-α) (P01375 77-233): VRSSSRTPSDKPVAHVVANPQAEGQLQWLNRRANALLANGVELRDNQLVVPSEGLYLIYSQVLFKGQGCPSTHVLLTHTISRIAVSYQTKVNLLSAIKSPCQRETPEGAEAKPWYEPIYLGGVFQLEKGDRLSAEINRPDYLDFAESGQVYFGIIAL

Substance: Adalimumab (+150 nM TNF-α) (from UniProt P01375 77-233)
EC50 [1]: 4.6 nM
S/B [1]: 6.9

Substance: Adalimumab (antibody)
EC50 [2]: 8 nM
EC50 [3]: 69.8 nM
EC50 [4]: 7.2 nM

Substance: Anti-human Fab 1: anti-human IgG Fab, mouse IgG2b, monoclonal antibody, clone 4A11 (ThermoFisher Scientific #SA1-19255)
Kd [5]: 0.37 nM
Kd [6]: 0.33 nM
Kd [7]: 0.2 nM
Kd [8]: 0.44 nM
Kd [9]: 0.16 nM

Substance: Anti-human Fab 2: anti-human IgG Fab, mouse IgG2b, monoclonal antibody, clone 2A11 (GeneTex #GTX27497)
Kd [5]: 0.47 nM
Kd [6]: 0.4 nM
Kd [7]: 0.26 nM
Kd [8]: 0.45 nM
Kd [9]: 0.2 nM

Substance: Cetuximab (antibody)
EC50 [10]: 16.9 nM

Substance: Cetuximab IgG2 isotype (InvivoGen #hegfr-mab2) (from UniProt P01859 1-326) (antibody)
EC50 [10]: 48 nM

Substance: Human IgG1 Isotype Control Recombinant Antibody (BioLegend #403502)
EC50 [10]: 17.3 nM
EC50 [13]: 13.7 nM
EC50 [14]: 23.7 nM
S/B [14]: 752

Substance: Human IgG2 Isotype Control Recombinant Antibody (BioLegend #403602)
EC50 [10]: 34 nM
EC50 [15]: 25.7 nM
EC50 [11]: 30.6 nM
EC50 [13]: 73.6 nM
EC50 [12]: 19.2 nM

Substance: Ipilimumab IgG2 isotype (InvivoGen #hctla4-mab2) (from UniProt P01859 1-326) (antibody)
EC50 [10]: 53.3 nM

Substance: Non-glycosylated Rituximab (InvivoGen #hcd20-mab12) (antibody)
EC50 [10]: 25 nM

Substance: Obinutuzumab (antibody)
EC50 [10]: 18.6 nM
EC50 [16]: 19.7 nM
S/B [16]: 1.6
EC50 [17]: 18.6 nM

Substance: Rituximab IgG2 isotype (InvivoGen #hcd20-mab2) (from UniProt P01859 1-326) (antibody)
EC50 [10]: 38.7 nM
EC50 [16]: 37.6 nM
EC50 [17]: 38.3 nM

More lines, now with the values ahead:

EC50 [10]: 13.2 nM
EC50 [11]: 10.9 nM
EC50 [12]: 7.2 nM
Substance: Atezolizumab (antibody)

EC50 [10]: 13.2 nM
Substance: Ipilimumab (antibody)

EC50 [10]: 16.2 nM
Substance: Non-fucosylated Rituximab (InvivoGen #hcd20-mab13) (from UniProt P01857 1-330) (antibody)

EC50 [10]: 10.2 nM
S/B [10]: 1.4
Substance: Non-glycosylated Cetuximab (InvivoGen #hegfr-mab12) (antibody)

EC50 [10]: 15.5 nM
EC50 [16]: 28.9 nM
EC50 [17]: 15.5 nM
EC50 [13]: 14.4 nM
EC50 [18]: 24 nM
EC50 [14]: 26.8 nM
EC50 [2]: 11.7 nM
Substance: Rituximab (antibody)
